According to article PMC5798300:

Target: (2S)-methylsuccinyl-CoA dehydrogenase from Paracoccus denitrificans, wild type, as used for analytical size-exclusion chromatography (Paracoccus denitrificans)
Test: SEC; analytical; Superdex 200 Increase 10/300 GL, 100 µl at 2 mg/ml, 0.7 ml/min, 20 mM Tris-HCl pH 7.9, 200 mM NaCl; enzymes incubated with 500 µM FAD for 1 h on ice beforehand; calibrated with a gel filtration standard

stoichiometry N: 2
Substance: (2S)-methylsuccinyl-CoA dehydrogenase from Paracoccus denitrificans, wild type, as used for analytical size-exclusion chromatography (enzyme)
